Here are results for 39 sequences from the supplement of paper PMC7877785.

± gives the uncertainty stated by the source.

The series is described as follows: self-splicing fitness, log relative to wild type (ln ratio); higher = more splicing; Tetrahymena group I intron in knt gene, E. coli kanamycin selection, DiMSum; sequences stand for … in CUCUCU…GGAGGGAAAAGUUAUCAGGCAUGCACCUGGUAGCUAGUCUUUAAACCAAUAGAUUGCAUCGGUUUAAAAGGCAAGACCGUCAAAUUGCGGGAAAGGGGUCAACAGCCGUUCAGUACCAAGUCUCAGGGGAAACUUUGAGAUGGCCUUGCAAAGGGUAUGGUAAUAAGCUGACGGACAUGGUCCUAACCACGCAGCCAAGUCCUAAGUCAACAGAUCUUCUGUUGAUAUGGAUGCAGUUCACAGACUAAAUGUCGGUCGGGGAAGAUGUAUUCUUCUCAUAAGAUAUAGUCGGACCUCUCCUUAAUGGGAGCUAGCGGAUGAAGUGAUGCAACACUGGAGCCGCUGGGAACUAAUUUGUAUGCGAAAGUAUAUUGAUUAGUUUUGGAGUACUCGUGGUCG
The essentials: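 DiMSum derived fitness as the error-weighted combination of fold changes across replicates, kanamycin versus no kanamycin, normalised to wild type. E. coli BL21(DE3) held the library, which randomised all eight P1ex-region intron nucleotides within the knt kanamycin-resistance gene on pET-22b(+). Six replicate transformations grew overnight at 37°C or 30°C on LB agar with or without 25 μg/mL kanamycin, also containing 100 μg/mL carbenicillin, 50 μM IPTG and 0.2% rhamnose, and pooled colonies were amplicon-sequenced on an Illumina HiSeq 2500.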

GAUAAGCAAUAUUACGUUGG: the “self-splicing fitness (ln)” value was -3.89 ± 0.21 (30 °C) and -2.87 ± 0.25 (37 °C).

In the case of GAUCAGCAAUAUUACGAACC, the “self-splicing fitness (ln)” value (30 °C) is -0.755 ± 0.19 and the “self-splicing fitness (ln)” value (37 °C) is -1.48 ± 0.28.

With GAUCAGCAAUAUUACGAGCG, the “self-splicing fitness (ln)” value is -1.37 ± 0.08 (30 °C) and -0.0351 ± 0.097 (37 °C).

On to GAUCAGCAAUAUUACGAUCA, for which the “self-splicing fitness (ln)” value (30 °C) is -0.53 ± 0.13 and the “self-splicing fitness (ln)” value (37 °C) was -0.636 ± 0.097. Take GAUCAGCAAUAUUACGCCUA: the “self-splicing fitness (ln)” value (30 °C) is 0.00222 ± 0.13 and the “self-splicing fitness (ln)” value (37 °C) was found to be 0.0251 ± 0.12. On the same counts, the results for GAUCAGCAAUAUUACGCGGU are -2.98 ± 0.16 and -1.85 ± 0.24. In the case of GAUCAGCAAUAUUACGCGUC, the “self-splicing fitness (ln)” value by setting is: (30 °C) -2.9 ± 0.18; (37 °C) -3.33 ± 0.4. On the same counts, the results for GAUCAGCAAUAUUACGGACA are -0.118 ± 0.089 and 0.127 ± 0.11.

For the sequence GAUCAGCAAUAUUACGGAGC, the “self-splicing fitness (ln)” value was -1.86 ± 0.094 (30 °C) and -0.552 ± 0.099 (37 °C). The matching figures for GAUCAGCAAUAUUACGGAUA: -0.42 ± 0.067 and 0.0803 ± 0.077. On the same counts, the results for GAUCAGCAAUAUUACGGGAG are -1.64 ± 0.068 and -0.581 ± 0.086. Regarding GAUCAGCAAUAUUACGGGAU, the “self-splicing fitness (ln)” value is, setting by setting: (30 °C) -3.01 ± 0.12; (37 °C) -1.18 ± 0.11. GAUCAGCAAUAUUACGGGCG: the “self-splicing fitness (ln)” value was -0.25 ± 0.095 (30 °C) and -0.511 ± 0.13 (37 °C). Consider GAUCAGCAAUAUUACGUAAA, for which the “self-splicing fitness (ln)” value is, setting by setting: (30 °C) -0.582 ± 0.079; (37 °C) 0.169 ± 0.099. The matching figures for GAUCAGCAAUAUUACGUCGG: -4.18 ± 0.3 and -2.39 ± 0.2. The matching figures for GAUCAGCAAUAUUACGUCGU: -0.403 ± 0.079 and -0.669 ± 0.1.

Regarding GAUCAGCAAUAUUACGUCUA, the “self-splicing fitness (ln)” value is -0.327 ± 0.071 (30 °C) and 0.145 ± 0.086 (37 °C). With GAUCAGCAAUAUUACGUUAU, the “self-splicing fitness (ln)” value by setting is: (30 °C) -1.46 ± 0.07; (37 °C) -0.207 ± 0.092. On the same counts, the results for GAUCAGCAAUAUUACGUUCG are -1.33 ± 0.063 and 0.136 ± 0.073. The matching figures for GAUGAGCAAUAUUACGAAGA: -3.25 ± 0.17 and -0.937 ± 0.14. The matching figures for GAUGAGCAAUAUUACGAAGU: -2.87 ± 0.22 and -2.84 ± 0.28. With GAUGAGCAAUAUUACGACCC, the “self-splicing fitness (ln)” value runs as follows: (30 °C) -0.245 ± 0.34; (37 °C) -0.0127 ± 0.3. GAUGAGCAAUAUUACGACCU: the “self-splicing fitness (ln)” value (30 °C) is -1.4 ± 0.18 and the “self-splicing fitness (ln)” value (37 °C) was -1.36 ± 0.16. In the case of GAUGAGCAAUAUUACGAGAG, the “self-splicing fitness (ln)” value (37 °C) is -3.01 ± 0.29. Regarding GAUGAGCAAUAUUACGAUGA, the “self-splicing fitness (ln)” value reads like this: (30 °C) -2.24 ± 0.2; (37 °C) -2.79 ± 0.27. Consider GAUGAGCAAUAUUACGCAAG, for which the “self-splicing fitness (ln)” value is -2.46 ± 0.38 (30 °C) and -1.51 ± 0.36 (37 °C).

For GAUGAGCAAUAUUACGCCCA, the “self-splicing fitness (ln)” value (30 °C) was -1.17 ± 0.23 and the “self-splicing fitness (ln)” value (37 °C) worked out at 0.487 ± 0.28. For the sequence GAUGAGCAAUAUUACGCCGU, under “37 °C”, the “self-splicing fitness (ln)” value is -2.33 ± 0.46.

Turning to GAUGAGCAAUAUUACGCCUC, the “self-splicing fitness (ln)” value (30 °C) is -2.56 ± 0.36 and the “self-splicing fitness (ln)” value (37 °C) is -1.01 ± 0.38.

With GAUGAGCAAUAUUACGCGAC, the “self-splicing fitness (ln)” value was -1.69 ± 0.17 (30 °C) and -0.921 ± 0.15 (37 °C).

As for GAUGAGCAAUAUUACGUCAG, the “self-splicing fitness (ln)” value is, setting by setting: (30 °C) -3.78 ± 0.32; (37 °C) -2.31 ± 0.26. On to GAUGAGCAAUAUUACGUCUA, for which the “self-splicing fitness (ln)” value reads like this: (30 °C) -1.51 ± 0.31; (37 °C) -1.2 ± 0.25. Regarding GAUGAGCAAUAUUACGUGAA, the “self-splicing fitness (ln)” value was -3.72 ± 0.22 (30 °C) and -1.91 ± 0.2 (37 °C).

Turning to GAUGAGCAAUAUUACGUGAC, the “self-splicing fitness (ln)” value is, setting by setting: (30 °C) -3.05 ± 0.34; (37 °C) -2.3 ± 0.42. With GAUGAGCAAUAUUACGUGGU, the “self-splicing fitness (ln)” value (30 °C) was -3.36 ± 0.37. Regarding GAUGAGCAAUAUUACGUUCU, the “self-splicing fitness (ln)” value runs as follows: (30 °C) -2.89 ± 0.16; (37 °C) -1.32 ± 0.12.

In the case of GAUUAGCAAUAUUACGAAGU, the “self-splicing fitness (ln)” value (30 °C) was -2.54 ± 0.16 and the “self-splicing fitness (ln)” value (37 °C) was -0.783 ± 0.12. The matching figures for GAUUAGCAAUAUUACGACCA: -0.409 ± 0.23 and -0.295 ± 0.34.

For GAUUAGCAAUAUUACGACGG, for the setting “37 °C”, the “self-splicing fitness (ln)” value is -2.39 ± 0.33.
